In doi:10.1101/2024.09.19.613683 (bioRxiv, 2024):

B1: tail sheath protein of phage 812 (natural protein, Staphylococcus phage 812)
chain: MAVEPFPRRPITRPHASIEVDTSGIGGSAGSSEKVFCLIGQAEGGEPNTVYELRNYSQAKRLFRSGELLDAIELAWGSNPNYTAGRILAMRIEDAKPASAEIGGLKITSKIYGNVANNIQVGLEKNTLSDSLRLRVIFQDDRFNEVYDNIGNIFTIKYKGEEANATFSVEHDEETQKASRLVLKVGDQEVKSYDLTGGAYDYTNAIITDINQLPDFEAKLSPFGDKNLESSKLDKIENANIKDKAVYVKAVFGDLEKQTAYNGIVSFEQLNAEGEVPSNVEVEAGEESATVTATSPIKTIEPFELTKLKGGTNGEPPATWADKLDKFAHEGGYYIVPLSSKQSVHAEVASFVKERSDAGEPMRAIVGGGFNESKEQLFGRQASLSNPRVSLVANSGTFVMDDGRKNHVPAYMVAVALGGLASGLEIGESITFKPLRVSSLDQIYESIDLDELNENGIISIEFVRNRTNTFFRIVDDVTTFNDKSDPVKAEMAVGEANDFLVSELKVQLEDQFIGTRTINTSASIIKDFIQSYLGRKKRDNEIQDFPAEDVQVIVEGNEARISMTVYPIRSFKKISVSLVYKQQTLQA

How the values were obtained:
[1] = molecular target: B1; test: cryo-EM structure
cryo-EM structure = molecular target: the molecule itself; test: cryo-EM structure

Row | Binder | binding result [1] | binding result (cryo-EM structure)
1 | tail tube protein of phage 812 (natural protein, Staphylococcus phage 812) MASEAKQTVHTGNTVLLMIKGKPVGRAQSASGQREYGTTGVYEIGSIMPQEHVYLRYEGTITVERLRMKKENFADLGYASLGEEILKKDIIDILVVDNLTKQVIISYHGCSANNYNETWQTNEIVTEEIEFSYLTASDKART | binds | –
2 | B1 | – | binds
